This is an account of results in US20190127468A1.

Test [1] has as its target mouse CTLA4 in cells of Ctla4 m/m (WT) mice (mouse) (UniProt P09793). In words: cell-based or functional assay.
Test [2] deals with Control IgG1-Fc (human) [IgG part: P01857]. In words: ELISA on coated target; binder 10 ng/ml. (In general: In an ELISA, binding on a coated surface is turned into a signal by an enzyme label.)
The target is the same in test [3]. In words: ELISA on coated target; binder 100 ng/ml.
The target is the same in test [4]. The experiment in a line: ELISA on coated target; binder 1000 ng/ml.
Test [5] has the same target. The experiment in a line: ELISA on coated target; binder 0 (background).
Test [6] has as its target CTLA-4Fc mutant M11 (AA103-106, YLGI>fcGm) (human). The experiment in a line: ELISA, plate-coated CTLA-4Fc protein, biotinylated B7-1 Ig at 1 ug/ml, HRP-streptavidin.
For test [7] the target is unchanged. The experiment in a line: ELISA, plate-coated CTLA-4Fc protein, biotinylated B7-1 Ig at 10 ng/ml, HRP-streptavidin.
For test [8] the target is unchanged. The experiment in a line: ELISA, plate-coated CTLA-4Fc protein, biotinylated B7-1 Ig at 0 (blank), HRP-streptavidin.
Test [9] shares this target. The experiment in a line: ELISA, plate-coated CTLA-4Fc protein, biotinylated B7-1 Ig at 100 ng/ml, HRP-streptavidin.
For test [10], the target named is human CTLA4 in cells of Ctla4 h/h knock-in mice (human) (UniProt P16410). In words: flow cytometry, intracellular staining of CTLA4 in spleen cells of Ctla4 h/h mice, gated on CD3+CD4+.
Test [11] deals with mouse CTLA4 in cells of Ctla4 m/m (WT) mice (mouse) (UniProt P09793). The experiment in a line: flow cytometry, intracellular staining of CTLA4 in spleen cells of Ctla4 m/m mice, gated on CD3+CD4+.
Test [12] concerns the target mouse CTLA4-Fc fusion protein (mouse) (UniProt P09793). In words: blocking ELISA: plate B7-1, biotinylated mouse CTLA4-Fc with the antibody, HRP-streptavidin; blocked ligand B7-1.
Test [13] shares this target. The experiment in a line: blocking ELISA: plate B7-2, biotinylated mouse CTLA4-Fc with the antibody, HRP-streptavidin; blocked ligand B7-2.

Several values for one entry are separate records, joined by “and”; a condition that tells them apart may be missing. Equal entries are not always repeated.

Sequence of CTLA-4Fc mutant M11 (AA103-106, YLGI>fcGm) (human) (chain, as listed by the source mutant limits assumed): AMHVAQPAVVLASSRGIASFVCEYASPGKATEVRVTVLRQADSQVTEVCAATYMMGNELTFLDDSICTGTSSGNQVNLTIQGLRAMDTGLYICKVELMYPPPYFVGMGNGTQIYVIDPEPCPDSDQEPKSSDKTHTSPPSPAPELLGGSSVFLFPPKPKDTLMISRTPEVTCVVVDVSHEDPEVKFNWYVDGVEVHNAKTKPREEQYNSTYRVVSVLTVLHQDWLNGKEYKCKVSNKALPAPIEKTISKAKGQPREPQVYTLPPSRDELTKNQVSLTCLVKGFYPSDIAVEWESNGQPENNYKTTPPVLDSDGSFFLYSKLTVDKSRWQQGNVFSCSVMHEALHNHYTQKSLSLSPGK
Sequence of anti-mouse CTLA4 mAb 9D9 (antibody) (light): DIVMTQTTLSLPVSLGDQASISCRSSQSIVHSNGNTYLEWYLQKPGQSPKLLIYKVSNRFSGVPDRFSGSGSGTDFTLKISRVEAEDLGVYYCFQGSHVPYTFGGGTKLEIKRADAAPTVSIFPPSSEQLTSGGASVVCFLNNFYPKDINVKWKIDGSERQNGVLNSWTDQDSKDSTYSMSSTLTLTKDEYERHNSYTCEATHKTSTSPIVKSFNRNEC
Sequence of anti-mouse CTLA4 mAb 9D9 (antibody) (heavy): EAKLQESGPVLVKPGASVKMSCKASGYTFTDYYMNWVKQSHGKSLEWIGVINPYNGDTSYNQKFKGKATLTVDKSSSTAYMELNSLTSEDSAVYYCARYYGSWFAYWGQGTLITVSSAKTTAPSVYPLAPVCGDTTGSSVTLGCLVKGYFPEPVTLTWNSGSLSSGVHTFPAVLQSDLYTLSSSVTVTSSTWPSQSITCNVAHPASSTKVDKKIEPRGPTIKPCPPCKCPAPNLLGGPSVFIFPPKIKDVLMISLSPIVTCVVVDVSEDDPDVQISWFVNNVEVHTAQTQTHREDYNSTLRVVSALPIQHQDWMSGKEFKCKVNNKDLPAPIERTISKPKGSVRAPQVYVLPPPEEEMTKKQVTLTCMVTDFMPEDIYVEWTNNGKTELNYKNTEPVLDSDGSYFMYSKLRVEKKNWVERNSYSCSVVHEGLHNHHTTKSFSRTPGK
Sequence of human CTLA4 in cells of Ctla4 h/h knock-in mice (human) (P16410 36-223): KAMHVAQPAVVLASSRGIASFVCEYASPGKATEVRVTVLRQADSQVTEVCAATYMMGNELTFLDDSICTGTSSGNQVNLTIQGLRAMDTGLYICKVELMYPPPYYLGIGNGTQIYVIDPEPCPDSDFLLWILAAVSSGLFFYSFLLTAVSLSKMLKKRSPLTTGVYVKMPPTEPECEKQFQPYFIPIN

Substance anti-mouse CTLA4 mAb 9D9 (antibody) came in with a B7-1 level on CD11c hi DC of WT mice 24 h after 500 µg antibody in [1] of 15%.
With chimeric L3D10 antibody, the OD450 in test [2] was 0.201 OD and 0.182 OD; in test [3], 0.315 OD and 0.326 OD; in test [4], 1.39 OD and 1.48 OD; in [5], 0.198 OD and 0.184 OD.
Consider “human B7-1 Fc fusion protein (from UniProt P33681 35-242)”, for which the OD450 in test [6] is 3.05 OD450 and 3.16 OD450; in test [7], 0.22 OD450 and 0.217 OD450; in [8], 0.174 OD450 and 0.163 OD450; in test [9], 0.884 OD450 and 1.04 OD450.
Turning to anti-mouse CTLA4 mAb 4F10 (antibody), the number over the gate (FoxP3-positive, 4F10-stained) among CD3+CD4+ splenocytes in test [10] is 0.107; in test [11], 9.52. Moreover, the IC50 (read off the curve) turned out to be 1 µg/mL in test [12] and 0.3 µg/mL in test [13].
